In paper PMC8130932 (PLoS Pathogens, 2021):

T1: Human coronavirus OC43 spike glycoprotein S1+S2 extracellular domain (Human coronavirus OC43, AVR40344.1 (by …))
T1 construct: source: bought: Sino Biologicals
T1 chain: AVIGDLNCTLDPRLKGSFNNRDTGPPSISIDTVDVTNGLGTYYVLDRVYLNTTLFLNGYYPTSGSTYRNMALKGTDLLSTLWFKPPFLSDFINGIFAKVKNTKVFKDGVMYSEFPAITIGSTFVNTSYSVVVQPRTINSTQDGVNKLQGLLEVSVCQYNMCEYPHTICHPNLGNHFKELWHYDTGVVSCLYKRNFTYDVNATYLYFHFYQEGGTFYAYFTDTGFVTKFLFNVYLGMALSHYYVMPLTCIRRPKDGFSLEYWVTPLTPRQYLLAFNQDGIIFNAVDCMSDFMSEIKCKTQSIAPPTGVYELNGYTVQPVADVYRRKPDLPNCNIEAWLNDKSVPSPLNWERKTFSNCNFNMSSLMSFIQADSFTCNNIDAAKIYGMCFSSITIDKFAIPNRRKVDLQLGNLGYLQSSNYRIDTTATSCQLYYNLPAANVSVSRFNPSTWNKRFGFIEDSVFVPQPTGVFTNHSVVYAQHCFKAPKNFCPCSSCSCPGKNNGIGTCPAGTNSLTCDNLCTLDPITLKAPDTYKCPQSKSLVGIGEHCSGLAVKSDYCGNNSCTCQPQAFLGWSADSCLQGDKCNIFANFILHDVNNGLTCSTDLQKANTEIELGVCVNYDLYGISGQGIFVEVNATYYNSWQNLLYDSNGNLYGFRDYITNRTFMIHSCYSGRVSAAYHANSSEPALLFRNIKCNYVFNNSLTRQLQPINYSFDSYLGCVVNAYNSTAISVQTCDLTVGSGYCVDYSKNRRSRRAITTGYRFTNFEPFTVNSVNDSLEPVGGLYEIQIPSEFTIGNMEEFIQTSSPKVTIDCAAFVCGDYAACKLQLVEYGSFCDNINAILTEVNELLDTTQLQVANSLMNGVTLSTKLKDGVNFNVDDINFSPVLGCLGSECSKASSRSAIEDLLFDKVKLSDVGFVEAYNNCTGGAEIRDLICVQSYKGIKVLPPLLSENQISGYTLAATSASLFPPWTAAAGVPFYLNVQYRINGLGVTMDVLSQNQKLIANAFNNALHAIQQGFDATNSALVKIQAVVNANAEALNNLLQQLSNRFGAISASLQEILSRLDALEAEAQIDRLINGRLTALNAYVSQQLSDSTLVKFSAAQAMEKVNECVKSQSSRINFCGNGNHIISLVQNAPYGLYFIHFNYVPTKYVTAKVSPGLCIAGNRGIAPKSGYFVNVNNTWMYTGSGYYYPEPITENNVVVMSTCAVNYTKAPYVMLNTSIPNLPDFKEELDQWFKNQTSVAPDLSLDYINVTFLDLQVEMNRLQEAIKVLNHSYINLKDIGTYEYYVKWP


Assays:
[1] = target: T2, SARS-CoV-2 spike S2 subunit, recombinant (SARS-CoV-2, reference sequence, UniProt P0DTC2); assay: ELISA
T2 construct: source: bought: Sino Biologicals, baculovirus-insect cells

[2] = target: T1, Human coronavirus OC43 spike …; assay: ELISA
[3] = target: SARS-CoV-2 spike glycoprotein of wild-type virus, in infected Vero E6 cells (SARS-CoV-2 …, UniProt P0DTC2); assay: cell-based or functional assay
[4] = target: T3, SARS nucleocapsid, recombinant (SARS-CoV, reference sequence (strain …, UniProt P59595)); assay: ELISA
T3 construct: source: bought: Sino Biologicals, baculovirus-insect cells

[5] = target: SARS-CoV-2 nucleocapsid, recombinant (SARS-CoV-2, reference sequence, UniProt P0DTC9); assay: ELISA
[6] = target: T4, SARS-CoV-2 RBD (amino acids 340-538) on MDCK-SIAT1 cells (SARS-CoV-2 (so in the source)); assay: flow cytometry on cells; details: one partner purified
T4 construct: also called MDCK-RBD; source: MDCK-SIAT1, stably transduced (lentiviral vector), on the cell surface

[7] = target: T5, SARS-CoV-2 NTD on MDCK-SIAT1 cells (SARS-CoV-2 (so in the source)); assay: flow cytometry on cells; details: one partner purified
T5 construct: also called MDCK-NTD

[8] = target: T6, MERS spike glycoprotein S1+S2 extracellular domain (MERS coronavirus, isolate EMC/2012 (by …, UniProt K0BRG7)); assay: ELISA
T6 construct: source: bought: Sino Biologicals, baculovirus-insect cells

Binder | OD450 [1] [OD450] | OD450 [2] [OD450] | PRNT EC50, wild-type SARS-CoV-2 (hCoV-19/England/02/2020) on Vero E6 cells [3] [nM] | OD450 [5] [OD450] | binding result [6] | binding result [7] | also measured
FN 2C (antibody, V domains shown, source: HEK293T, transfected; culture supernatant or purified) VH: EVQLLESGGGVVQPGRSLRLSCAASGFNFNNYGMHWVRQAPGKGLEWVATISYEGSKKFYVDSVKGRFTISKDNSKNTLYLQMNSLRVDDTAFYYCAKRREIFWLGEPPLSDAFDFWGQGTMVTVSS VL: QSVLTQPPSVSGAPGQRVTISCTGSGSNIGAGYDVHWYQFLPGTAPQLLIYGNNNRPSGVPDRFSGSKSGTSASLAITGLQAEDEADYYCQSYDSSLSGSVFGGGTKLTVL | 1.15 | 2.2 |  |  |  |  | 
EW 9C (antibody, V domains shown, source: HEK293T, transfected; culture supernatant or purified) VH: EVQLVESGGGVVQPGASLRLSCVASGFTFNNFGFHWVRQAPGKGLEWLAVISYEGSKTYYAESLKGRFTISRDTSKNTVYLQMNSLRAEDTAVYYCARATSIFWFGEGRNWFDPWGQGTMVTVSS VL: EIVLTQSPGTVSLSAGERATLSCRASQNVGTDLAWYVQRPGQAPRLLIYDTSNKATGIPARFSGRGSGTDFTLTIDSLEPEDFAVYYCQQRSNWPLTFGGGTKVEIR | 1.17 | 1.82 | 133 |  |  |  | 
FD 6D (antibody, V domains shown, source: HEK293T, transfected; culture supernatant or purified) VH: EVQLVESGPGLVKVSETLFLTCTVSGYSIGSGNYWGWIRQPPGKVLEWIGSTYHSGTTYYNPSLKSRVTISVDSSKNQFSLKLTSVTAADTAVYYCARDRLLAVHYDSRGYLVDYWGQGTMVTVSS VL: AIRMTQSPDSLAVSLGERATINCKSSQSIFYSSNNKNYLAWYQHKPGQPPKLLIYWASTRESGVPDRFSGSGSGTDFTLTISSLQAEDVAIYYCQQYYDIPRTFGQGTKVEIR |  |  |  | 1.73 |  |  | OD450 [4]: 1.19 OD450
EZ 4A (antibody, V domains shown, source: HEK293T, transfected; culture supernatant or purified) VH: EVQLVQSGAEVKKPGESLKISCKGSGYSFTSYWIGWVRQMPGKGLEWMGIIYPGDSDTRYSPSFQGQVTISADKSISTAYLQWSSLKASDTAMYYCARSPIAADLFDYWGQGTLVTVSS VL: not shown |  |  |  | 1.03 |  |  | 
EY 2A (antibody, V domains shown, source: HEK293T, transfected; culture supernatant or purified) VH: QVQLVESGAEVTKPGDSLIISCKGSGYAFTQYWIGWVRQKPGKGLEWMAMVYPDSSAVFAGGASGVRYRPPFQGQVTISADTSVNTAYLQWDSLKASDTAMYYCVRQERGSNTWYAGNSWGQGTLVTVSS VL: DIVMTQSPLSLPVSPGEPASISCRSSQSLLHTDAYNYLDWYLQKPGQSPQLLIYLGSTRASGVPDRFSGSGSGTDFTLKISSVKAEDVGVYYCMQALQTPGTFGQGTKLEIK |  |  |  | 1.28 |  |  | OD450 [4]: 1.13 OD450
EY 3B (antibody, V domains shown, source: HEK293T, transfected; culture supernatant or purified) VH: EVQLVESGAEVTKPGESLIISCKGSGYAFTQYWIGWVRQKPGKGLEWMAMVYPDSSAVFAGGASGVRYRPPFQGQVTISADTSVNTAYLQWDSLKASDTAMYYCVRQERGSNTWYAGNSWGQGTLVTVFS VL: EIVLTQSPLSLPVSPGEPASISCRSSQSLLHTDAYNYLDWYLQKPGQSPQLLIYLGSTRASGVPDRFSGSGSGTDFTLKISSVKAEDVGVYYCMQALQTPGTFGQGTKVEIR |  |  |  | 1.22 |  |  | OD450 [4]: 1 OD450
FJ 1C (antibody, V domains shown, source: HEK293T, transfected; culture supernatant or purified) VH: QVQLQESGPGLVKPSETLSLTCTVSGYSISSGYYWGWIRQPPGKGLEWIGSIYHSGSTYYNPSLKSRVTISVDTSKNQFSLKLSSVTAADTAVYYCARDKALLWFGELFTNLFDYWGQGTLVTVSS VL: QSALTQPASVSGSPGQSITISCTGTSSDVGGYNYVSWYQQHPGKAPKLMIYEVSNRPSGVSNRFSGSKSGNTASLTISGLQAEDEANYYCSSYTSSSTLVFGGGTKLTVL |  |  | 55.5 |  | no binding | binds | 
EZ 4C-1 (antibody, V domains shown, source: HEK293T, transfected; culture supernatant or purified) VH: EVQLVESGPGLVKPSETLSLTCTVSGGSVSSGNNYWSWIRQPPGKALEWIGYIYYSGSTKYNPSLKSRVTMSVGTSKNQFSLKVNSVTAADTAMYYCARAPSAPFGGLFDWILPKGINNWGQGTLVTVSS VL: EIVLTQSPSTLSASVGDRVTITCRTSQSIRSWLAWYQQKPGKAPKLLIFEASTLESGVPERFSGSGSGAEFTLTISSLQPDDFATYYCQQYNGYSYSFGQGTKVEIR |  |  |  | 0.6 |  |  | 
FD 11E (antibody, V domains shown, source: HEK293T, transfected; culture supernatant or purified) VH: EVQLVESGGGLVKPGGSLRLSCAASGFTFSSYSMNWVRQAPGKGLEWVSSISSSSSYIYYADSVKGRFTISRDNAKNSLYLQMNSLRAEDTAVYYCASLAAAGPETYYYYGMDVWGQGTMVTVSS VL: not shown |  |  | 70 |  | no binding | no binding | 
FD 1E (antibody, V domains shown, source: HEK293T, transfected; culture supernatant or purified) VH: EVQLLESGGGLVKPGGSLRLSCAASGFTFSSYSMNWVRQAPGKGLEWVSSISSSSSYIYYADSVKGRFTISRDNAKNSLYLQMNSLRAEDTAVYYCASLAAAGPETYYYYGMDVWGQGTMVTVSS VL: not shown |  |  | 110 |  |  |  | 
FJ 4E (antibody, V domains shown, source: HEK293T, transfected; culture supernatant or purified) VH: QVQLVESGPGLVKPSETLSLTCSVSGGSISSGTYYWSWIRQQPGKGLEWIGYIYNTGRPYYNPFLKSRITISVDSSKNQFSLKLTSVTAADTAVYYCARDEYDSSDSGIQGHWFDPWGQGTLVTVSS VL: AIRMTQSPSSLSASVGDRVTITCRTSQNINSFLNWYQQKPGKGPNLLIYGAFTLQSGVPSRFSGSGSGTDFTLTISSLQPEDFATYFCQQSYSTPWTFGQGTKVEIK | 0.91 | 1.68 |  |  | no binding | no binding | OD450 [8]: 1.08 OD450
FB 1E (antibody, V domains shown, source: HEK293T, transfected; culture supernatant or purified) VH: EVQLVESGAEVKKPGESLKISCQGSGYRFNSYWIAWVRQMPGKGLEWMGSIFPTDSDIRYNPSFQGQVTISADKSISIAYLQWSSLKASDTAIYYCARHWASMVRGVIRASHYYGMDVWGQGTTVTVSS VL: QSVLTQPPSASGSPGQSVTISCSGASSDIGDYNYVSWYQQLPGKAPKLLIYEVTKRPSGVPDRFSGSKSGNTASLTVSGLQADDEADYYCSSYAFGGSDIRVFGGGTKLAVL | 1.2 | 2.34 | 36 |  |  |  | OD450 [8]: 1.01 OD450
FB 9D (antibody, V domains shown, source: HEK293T, transfected; culture supernatant or purified) VH: QVQLVESGAEVKKPGESLKISCQGSGYRFNSYWIAWVRQMPGKGLEWMGSIFPTDSDVRYNPSFQGQVTISADKSISFAYLQWSSLKASDTAIYYCARHWASMVRGVIRASHYYGMDVWGQGTTVTVSS VL: QPVLTQPPSASGSPGQSVTISCSGASSDIGKYNYVSWYQQLPGKAPKLLIYEVTKRPSGVPDRFSGSKSGNTASLTVSGLQADDEADYYCSSYAFGGSDTRVFGGGTKLTVL | 1.27 | 2.13 |  |  | no binding | no binding | OD450 [8]: 1.5 OD450
FD 10A (antibody, V domains shown, source: HEK293T, transfected; culture supernatant or purified) VH: EVQLVESGGGLVQPGGSLRLSCAASGFTFSSYWMHWVRQAPGKGLVWVSRINSDGSSTSYADSVKGRFTISRDNAKNTLYLQMNSLRAEDTAVYYCANMAFDIWGQGTMVTVSS VL: not shown | 1.32 |  | 111 |  | no binding | no binding | 
EZ 11A (antibody, V domains shown, source: HEK293T, transfected; culture supernatant or purified) VH: EVQLVESGGGLVQPGGSLRLSCAASGFTFSSYWMSWVRQAPGKGLEWVANIKQDGSEKYYVDSVKGRFTISRDNAKNSLYLQMNSLRAEDTAVYYCARDDYSGSYYWEFDYWGQGTLVTVSS VL: QPVLTQSPSASASLGASVKLTCTLSSGHSSYAIAWHQQQPEKGPRYLMKLNSDGSHSKGDGIPDRFSGSSSGAERYLTISSLQSEDEADYYCQTWGTGIWVFGGGTKLTVL |  |  |  | 1.29 |  |  | OD450 [4]: 1.31 OD450
